Patent US20100260668A1 (published 2010)

B1: DVD474 (VEGF (AB071) N-terminal / DLL4 (seq. 1) C-terminal DVD-Ig, long HC linker, long LC linker) (bispecific antibody, human IgG1, kappa)
heavy: not shown
light: DIQMTQSPSSLSASVGDRVTITCRASQVIRRSLAWYQQKPGKAPKLLIYAASNLASGVPSRFSGSGSGTDFTLTISSLQPEDFATYYCQQSNTSPLTFGQGTKVEIKRTVAAPSVFIFPPDIQMTQSPSSLSASVGDRVTITCRASQDVSTAVAWYQQKPGKAPKLLIYSASFLYSGVPSRFSGSGSGTDFTLTISSLQPEDFATTYYCQQSYTGTVTFGQGTKVEIKRTVAAPSVFIFPPSDEQLKSGTASVVCLLNNFYPREAKVQWKVDNALQSGNSQESVTEQDSKDSTYSLSSTLTLSKADYEKHKVYACEVTHQGLSSPVTKSFNRGEC
notes: also called DVD474H/DVD474L
B2: DVD486 (VEGF (AB071) N-terminal / DLL4 (seq. 1) C-terminal DVD-Ig, short HC linker, long LC linker) (bispecific antibody, human IgG1, kappa)
heavy: not shown
light: B1 light
notes: also called DVD486H/DVD486L
B3: DVD485 (DLL4 (seq. 1) N-terminal / VEGF (AB071) C-terminal DVD-Ig, short HC linker, long LC linker) (bispecific antibody, human IgG1, kappa)
heavy: not shown
light: DIQMTQSPSSLSASVGDRVTITCRASQDVSTAVAWYQQKPGKAPKLLIYSASFLYSGVPSRFSGSGSGTDFTLTISSLQPEDFATTYYCQQSYTGTVTFGQGTKVEIKRTVAAPSVFIFPPDIQMTQSPSSLSASVGDRVTITCRASQVIRRSLAWYQQKPGKAPKLLIYAASNLASGVPSRFSGSGSGTDFTLTISSLQPEDFATYYCQQSNTSPLTFGQGTKVEIKRTVAAPSVFIFPPSDEQLKSGTASVVCLLNNFYPREAKVQWKVDNALQSGNSQESVTEQDSKDSTYSLSSTLTLSKADYEKHKVYACEVTHQGLSSPVTKSFNRGEC
notes: also called DVD485H/DVD485L
B4: DVD486 (bispecific antibody, human IgG1, kappa)
heavy: not shown
light: B1 light
notes: DVD-Ig, HC short / LC long; DLL4 domain C-terminal; also called VEGF / DLL4 DVD-Ig; DVD486H
B5: DVD485 (bispecific antibody, human IgG1, kappa)
heavy: not shown
light: B3 light
notes: DVD-Ig, HC short / LC long; DLL4 domain N-terminal; also called DLL4 / VEGF DVD-Ig; DVD485H
B6: DVD471 (bispecific antibody, human IgG1, kappa, L234A L235A)
heavy: not shown
light: DIQMTQSPSSLSASVGDRVTITCRASQDVSTAVAWYQQKPGKAPKLLIYSASFLYSGVPSRFSGSGSGTDFTLTISSLQPEDFATTYYCQQSYTGTVTFGQGTKVEIKRTVAAPSVFIFPPDIQMTQSPSSLSASVGDRVTITCRASQDVSTAVAWYQQKPGKAPKLLIYSASFLYSGVPSRFSGSGSGTDFTLTISSLQPEDFATYYCQQSYTTPPTFGQGTKVEIKRTVAAPSVFIFPPSDEQLKSGTASVVCLLNNFYPREAKVQWKVDNALQSGNSQESVTEQDSKDSTYSLSSTLTLSKADYEKHKVYACEVTHQGLSSPVTKSFNRGEC
notes: DVD-Ig, HC long / LC long; DLL4 domain N-terminal; also called DLL4 / VEGF DVD-Ig; DVD471H

These binders were tested against T1, human DLL4 extracellular domain (human, UniProt Q9NR61 27-529, biotin label in the Notch-1 competition ELISA (sites not given)) (assay: competition ELISA: 14 nM biotin-labelled human DLL4 ECD pre-mixed with DVD-Ig, then on coated human Notch-1 (competitor Notch-1)).
T1 construct: extracellular domain; also called biotin labeled human DLL4 extracellular domain

Binder	IC50
B1	2.3 nM
B2	2.91 nM
B3	3.44 nM

These binders were tested against biotinylated VEGF (UniProt P15692-4 27-191, limits assumed, biotinylated) (assay: VEGF capture ELISA, DVD-Ig captured by anti-human Fc, biotinylated VEGF).

Binder	EC50
B4	0.53 nM
B5	2.5 nM
B6	0.56 nM

These binders were tested against T1, human DLL4 extracellular domain (assay: cell-based or functional assay).

Binder	DVD-Ig Inhibition of sFlt1 (IC50, nM)
B1	0.93 nM
B2	0.7 nM
B3	6.67 nM

What follows are binders tested against T2, biotin-labeled human DLL4 extracellular domain (human, UniProt Q9NR61 27-529, biotin-labeled) (assay: DLL4 capture ELISA, DVD-Ig captured by anti-human Fc, biotin-labeled human DLL4 ECD).
T2 construct: extracellular domain

Binder	EC50
B4	0.16 nM
B5	5.45 nM
B6	0.17 nM

The binders below were run against T3, human DLL4 on 293G-human DLL4 cells (human, UniProt Q9NR61 27-685) (assay: FACS: inhibition of Notch1 binding to 293G-human DLL4 cells (competitor Notch1)).
T3 construct: whole, on cells; no method paragraph describes this FACS assay

Binder	IC50
B1	27.5 nM
B2	10.2 nM
B3	6.3 nM
